Assays:
[1] = molecular target: 人OX40 (膜表面过表达人OX40的293T细胞系) (human) (UniProt P43489); test: flow cytometry on 293T cells overexpressing human OX40
[2] = molecular target: OX40 (Kd检测ELISA法的抗原) (human) (UniProt P43489); test: ELISA-based Kd method (ELASA法)
[3] = molecular target: 人OX40 (膜表面过表达人OX40的293T细胞系) (human) (UniProt P43489); test: flow cytometry on 293T cells overexpressing human OX40, PE goat anti-mouse secondary

EC50 [1] [nM]	Kd [2] [nM]	EC50 [3] [nM]	Molecule
2.5	9.8		CD40 Monoclonal Antibody (HB14), PE, Catalog#CD4004, Invitrogen
	0.0273	0.0125	抗人OX40单克隆抗体 (杂交瘤OX401M) (antibody, part only; not given: constant regions, V domains shown, part only) VH: QVQLAQPGAELVRPGASVKQYCKASGYSGSSYTIHWVKQTPSRGLEWIGAIYPGNGDTSWNQKFKGKATITADKSSSTAYMRLSSLTSEDSAISYCARSTYYYGAYYFDYWGQGSTL

Reference: patent CN110172090A
